Laboratory results published in the nanobody polyreactivity screen of Harvey et al. (2022).

Assay: yeast display, Sf9 membrane polyspecificity reagent, FACS + sequencing; frameworks hold sequencing errors
Procedure, shortened: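 Nanobodies came from a synthetic yeast display library in Saccharomyces cerevisiae BJ5465, induced with galactose for 36–48 hours and stained for 1 hour at 4 °C with 10% biotinylated, detergent-solubilized Sf9 membrane reagent. Cells were enriched on streptavidin microbeads and then FACS-sorted, with low and high (top ~1%) gates set on anti-HA fluorescence for expression and streptavidin fluorescence for reagent binding. Each polyreactivity label reflects the gate a clone came from. Genes were amplified by colony PCR, sequenced by MiSeq 2 × 250 and filtered by CDR length.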

Sequence	polyreactivity (PSR sort gate)
QLQLVESGGGLVQAGGSLRLSCAASGSIFDVYTMGWYRQAPGKERELVAAINTCGGSTYYADSVKGRFTISRDNAKNTVYLQMNSLKPEDTAVYYCAASVYHYGPLYYWGQGTQVTVSS	low polyreactivity
QLQLVESGGGLVQAGGSLRLSCAASGSIFTWYAMGWYRQAPGKERELVAAITRGGSTYADSVKGRFTISRDNAKNTVNLQMNSLKPEDTAVYYCNAVYGVYDFNYWGQGTQVTGSS	low polyreactivity
QLQLVESGGGLVQAGGSLRLSCAASGSNISYYAMGWSRQAPGKERELVAAISKRGASTYYADSVKGRFTISRDKAKNTVFLQMNSLKPEDTAVYYCAAYRQGSAYDYWGQGTQVTVSS	high polyreactivity
QLQLVESGGGLVQAGGSLRLSCAASGSTASINAMGWYRQAPGKERELVADISTNGDSTSYADSVKGRFTISRDNAKNTVYLQMNSLKPEDTAVYYCNAVPHIYAEGTAYKYWGQGTQETVSS	low polyreactivity
QLQLVESGGGLVQAGGSLRLSCAASGSTFDVNAMGWYRQAPGKERELVAAISYSGGSTYYADSVKGRFTISRDNAKNTVYLQMNSLTPEDTAVYYCNAVFSRYSRLELGYWGQGTQVTVSS	high polyreactivity
QLQLVESGGGLVQAGGSLRLSCAASGSTFGPYAMGWYRQAPGKDRELVASITRSGGDTYYADSVKGRFTISRDNAKNSVYLQMNSLKPEDTAVYYCNKASHANEFGYWGQGTQVTVSS	high polyreactivity
QLQLVESGGGLVQAGGSLRLSCAASGSTFPWYTMGWYRQAPGKERELVAAITWNGVSTYYADSVKWRITISRDNAKNTVYFQMNSLKPEDTAVYYCATRIKRIGGFPYYYWGQGTQVTVSS	high polyreactivity
QLQLVESGGGLVQAGGSLRLSCAASGSTLSDNAMGWYRQAPAKERELVASISWSGGTYYADSVKGRFTISRDNANNTVYLQMNSLKPEDTAVYYCAAYIYYNYSRQYWYDYWGQGTQVTVSS	low polyreactivity
QLQLVESGGGLVQAGGSLRLSCAASGSTLYWNAMGWYRQAPGKERELVAGISIGGRTNYADSVKGRFTISRDNAKNTVYLQMNSLKPEDTAVYYCNAENTYLGSRYRPYNYWGQGTQVTVSS	low polyreactivity
QLQLVESGGGLVQAGGSLRLSCAASGSTVAYNDMGWYRQAPGKERELVADIRSGGNTNYADSVKGRFTISRDNAKNTVYLQMNSLKTEDTAVYYCATDGYRIDVYHPDYRYDYWGQGTQVTVSS	low polyreactivity
QLQLVESGGGLVQAGGSLRLSCAASGYIFFKYAMGWYRQAPWKERELVASITSRGGTTYYADSVKGRFTISRDNAKNTVYLQMNSLKPEDTAVYYCAALRRSSFGYWGQGTQVTVSS	high polyreactivity
QLQLVESGGGLVQAGGSLRLSCAASGYIFGWYAMGWYRQAPGKERELVATIDWSGDSTYYADSVKGRFTISRDNAKNTVYLQLNSLKPEATAVYYCAVGYSYYPSDEFDYWGQGTQVTVSS	low polyreactivity
QLQLVESGGGLVQAGGSLRLSCAASGYTFRFNAMGWYRQAPGKEREFVAAIDFGGAGTYYADSVKGRFTISRDNAKNTVYLQMNSLKPEDTAVYYCAADGQWYYAPFRGGDYENDYWGQGTQVTVSS	low polyreactivity
QLQLVESGGGLVQAGGSLRLSCAASGYTIIQYAMGWYRQAPGKERELVAGITWSGGSTYADSVKGRFSISRDNAKNTVYLQMNSLKPEDTAVYYCAADDRDIYQYGTPYGSGIRYDYWGQGTQVTVSS	low polyreactivity
QLQLVESGGGLVQAGGSLRLSCAASRRIFDRNAMGWYRQAPGKERELVARIDPGDDTNYADSVKGRFTISRDNAKNTVSLQMNSLKPEDSAVYYCATDPDYVLYRTAYYEYDYWGLGTQVTVSS	low polyreactivity
QLQLVESGGGLVQAGGSLRLSSAASGFTFSIYAMGCYRQAPGKERELVAAINFGGGGTYYADSVKGRFTSSRDIAKNTVYLQMNSLKAEVTAVYDCAADYCYDYYSTEYDYWGQGTQVTVSS	low polyreactivity
QLQLVESGGGLVQAGGSLRLSSAASGSIFYEYTMGWYRQAPGKEREVVAVITSGGTTNYADSVKGRFTISRDNANNTDYLQMNSLKPEDTAFYYCNAVYRTSFQRGGGYWGQGTQVTVSS	high polyreactivity
QLQLVESGGVLVQAGGSLRLSCAASGRTFSEYLQGCYRPPPGKERELVAASTRGGGGTYYADSVKGRFTISRDNAKNTVYFQMNSLKPEDTAVYYCAAGRRGSAGYYRQFGYGYWGQGTQVTVSS	high polyreactivity
QLQLVESGRGLVQAGGSLRLSCAASGRTFYGYDMGWYRPAPGKERELVATISSGGSTNYADSVKGRFTISRDNAKNTVYLQMNSLKPEDTAVYYCNADSYEYPSPYRYYYLGYDYWGQGTQVTVSS	low polyreactivity
QLQLVESRPGLVPAGGSLRLSCAPSGSTFSYYAMGRYRQAPGKERELDAAISKSGGSTYYADSVKGRFTISRDNAINTVFLQMNSLKPYDTAFYYCSTRSRDPYSVSYRLDYWGQGTQVTVSS	low polyreactivity
QLQLVESVGGLVQAGGSLRLSCASSGLIFYVSAMGSYRQAPGKERELVAAITSSGASTYYADSVKGRFTISRDNAKNTVYLQMNSLKPEDTAVYYCAGRYAGGRRAYGYWGQGTQVSVSS	high polyreactivity
QLQLVESVGGVVQPGGSLRLSSAASGSNFRYYAIGWYRQAPGKERELVAAINWSGGSTYYADSVKGRVTISRDNAKNTVYLQMNSLKPEDTAVYYWAASWYYCRRYDYWGQGTQVTVSS	high polyreactivity

Sequence	polyreactivity (PSR sort gate)
QQLQESGGGLVQAGGSLRLSCAASGSISGSVLMGWYRQAPGKEREFVASISLGGNTNYADSVKGRFTISRENAKNTVYLQMNCLKPEVAAVYYCAAYISLFETHPYWGQGTQVTVSS	high polyreactivity
QVELVESCGGLVQAGGSLRLSCAASGSTFTRNGMGWYSLAPGKEREMVAAISSGGSTNYADSVKGRFTISRDNAKNTVDFQKNSLQPEDTAVYYCAVDYRHSSSWNAGPWQMYYWGQGTQVTVSS	low polyreactivity
QVELVESGGGLVLAGGSLRLSCADSGRTFSYYAMGWYRQAPGKERELVAVITSSGGSTSYADSVKGRFTISRDNAKNTVYLQMNSLKPEDTAVYDCAADPLAVYWAYYLIGVYYWGQGTQVTVSS	high polyreactivity
QVELVESGGGLVQAGGSLRLSCAASGFTFRYYAMGWYRQAPGKERELVAAINASGGRTYYADSVKGRFTISRDNAKNTVYLQMNSLKPEDTAVYYCAARSIRQHYGMDYWGQGTQVTVSS	high polyreactivity
QVELVESGGGLVQAGGSRRLSCAASGSTFYAYAMGWYRQAPGKERELVAAISASGDSTYYADFVKGRFTISRDNAKNTVYLQMNSLTPEDTAVYYCAAEVYYRPQDYYTYPDYYWGQGTQVTVSS	high polyreactivity
QVHFVESGGGLVQAGGSLRLSSAASGRTFQYNAMGWYRQAPGKERELVARITWSGDSTYYADSVKGRFTISRDNAKNSVYLQMNSLKPEDTAVYYCNAGRRWRRTAYDYWGQGTQVTVSS	high polyreactivity
QVHHEETGGGIVQAGGSLRLSCAASGRIFDYIAMGWYRQAPGKERELVAAISQSGGSTYYADSVKGRFTISRDNAKNTVYLQMNSLKPEDTAVYYCAAFISRSRNEYWGQGTLVTVSS	high polyreactivity
QVHHVDSGGGLVQAGGTLRLSIPASGRTFQYYTMGWYRQPPGKERELVAAIRRGGSTYYADSVKGRFSISRDNAKNTVYLQLNILKPEDTAVYYCADLYAYSLTARGMEYWGQGTQVTVSS	high polyreactivity
QVHHVESAGRLVQAGGILRLICPASGFTFGHYVMGWYRQEPGKERELLAAITLSGGGTYYADSVKGRFTISRDNAKNTGYLQMNSLKPQDTAVYYCAAVGGDHAKITYSRYKVDYWGQGTQVTVSS	low polyreactivity
QVHHVESGGVLVQARVSLRLSCAASGIIIAYYAVGWYGQAPGKESELVAAITSGGSTSYADSVKGRFTISRDNAKNTVYLQMISLKPEDTAVYYCNTDPSGYESGYWGQGTQVTVSS	low polyreactivity
QVHIEDSGGGLLQAGGSLRLSCAATGRTFFYYAMGWYRQAPGKERELVAAISGRGGRTYYADSVKGRFTISRDNAINTVYLQMNSLKPEDTAVYFCGGDAGPLRYDYWGQGTQVTVSS	high polyreactivity
QVHIVESGGGLVQAGGSLRLSCAASGINFGRNVMGWYRQPPGKERELVAAISWSGGRTYYADSVKGRFTISRDNAKNTVYFQIKSLITEDTAVYDCNARTGYYTGQYDYWGQGSQVTVSS	high polyreactivity
QVHLEDSGGGLVQAGVILRLSSPASGSIFVYNAMGWYRPAPGKERELVAAISSSGGSTYYADSVKGRFTISRDNAKNTVYLQMNSLKPEDTAVYYCAAEAVRKVPSYYSYAYYYWGQGTQVTVSS	high polyreactivity
QVHLEESGGGLVQAGGSLRLSCAASGFTFHNNVMGWYRQAPGKERELVATISKSGGSTYYADSVKGRFTISRDNAKNPVYLQMKSLKPEDTAVYYSARRYRDYRRYAYWGQGTQVTVSS	high polyreactivity
QVHLEESGGGLVQAGGSLRLSCAASGRTFYANTMGWYRPAPGKERELVAGITSGGSTSYADSVKGRFTISRDNAKNTVYLQMNSLKPEDTAVYYCAAQFYRYTATGYYADGYWGQGTQVTVSS	low polyreactivity
QVHLGESGGGLVQAGGSLRLSCAASGSTFDRNVIGGYRQAPGKERELVAAISRVSSTNYADSVKGRFTISRDNAKNTVYLQMNSLKPEDTAVYYCAADRAGSIMNYWGQGTQVTVSS	low polyreactivity
QVHLGETGGALVQAGGRLRLSCAASGITLGAYAMGWYRQAPGKERELVARIRIGGSTYYADSVKGRFTISRDYAKNTVFLQMNSLKPEDTAVYYCNALYRYLYRSGDYWGQGTQVTVSS	low polyreactivity
QVHLLESGGGLVQAGGSLRLICAASGRILYPYALVWYRQAPGKETELVAAITFRGGNTYYADSVKARFTLSRDYAKNTVYLQMNSMKPEDTAVYFCAARKSPRSQVRGRSYYWGQGSQVTVSS	high polyreactivity
QVHLQDSGGGLVQAGGSLRLSCAASCYISDVNDMGWYRQAPGKEREFVAGIGYGGITNYADSVKGRFTISRDNAQNTVYQHMNSLKPKDTAVYNCAVHWGPDSGLYYWGQGTQVTVSS	high polyreactivity
QVHLQDSGVGLVQAGGSLRLSCAASGSIFGSGSMGWFRQAPGKERELVATINNGSSTYYADSVKGRFTISRDNAKNTVYLQMNSLKPEDTAVYYCAVYLYRLTFFYYWGQGNQVTVSS	high polyreactivity
QVHLQESGGGLVKAGGSLRLSCAASGTISPLPAMCWYRQAPGKEREFVAGIDTGAITNYADSVKGRFTISRDNAKNTVYLQMNSLKPEDTAVYYCAFFPAAYDYYERYYTYWGQGTQVTVSC	low polyreactivity
